The values below come from publication PMC11417369, “DNA sequence and chromatin differentiate sequence-specific transcription factor binding in the human malaria parasite Plasmodium falciparum”.

Sequences and labels used below:
T1: AP2-G D1 (Plasmodium falciparum, UniProt Q8I5I9 2123-2245)
T1 sequence: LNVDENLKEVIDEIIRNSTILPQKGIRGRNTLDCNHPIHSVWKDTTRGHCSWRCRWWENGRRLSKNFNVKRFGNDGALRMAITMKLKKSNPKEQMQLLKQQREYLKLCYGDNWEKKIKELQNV

B1: XGTACX_negctrl_site143 (dsDNA)
DNA 1: TATTTCGTAATTTAATAATATACAAGAAATATATAT
DNA 2: ATATATATTTCTTGTATATTATTAAATTACGAAATA
B2: XGTACX_negctrl_site380 (dsDNA)
DNA 1: TTTTTTAAAAGATATATAATATGTATGAATATTCAA
DNA 2: TTGAATATTCATACATATTATATATCTTTTAAAAAA
B3: XGTACX_negctrl_site221 (dsDNA)
DNA 1: TATTTTATAAATACAAGTAAAATTAAATATATAATA
DNA 2: TATTATATATTTAATTTTACTTGTATTTATAAAATA
B4: XGTACX_negctrl_site87 (dsDNA)
DNA 1: GCATATTTTCCCTGTGAATAAAGTTTTTTTTTTTAT
DNA 2: ATAAAAAAAAAAACTTTATTCACAGGGAAAATATGC
B5: XGTACX_negctrl_site240 (dsDNA)
DNA 1: TTTTTTATAAAATTTTTTTTTTAAAATATTAAAACT
DNA 2: AGTTTTAATATTTTAAAAAAAAAATTTTATAAAAAA
B6: XGTACX_negctrl_site72 (dsDNA)
DNA 1: CTTTCAAAATTATTTATAGTATCTCATATTTTAGTA
DNA 2: TACTAAAATATGAGATACTATAAATAATTTTGAAAG
B7: XGTACX_negctrl_site159 (dsDNA)
DNA 1: TACAAAAAGAATGAAAAATATATAATAAAAATAAAA
DNA 2: TTTTATTTTTATTATATATTTTTCATTCTTTTTGTA
B8: XGTACX_negctrl_site599 (dsDNA)
DNA 1: TTTTTGTAAACCTACTTCATAATTATTTATATCTAT
DNA 2: ATAGATATAAATAATTATGAAGTAGGTTTACAAAAA
B9: XGTACX_negctrl_site67 (dsDNA)
DNA 1: AACAAATAAAGCTATGACATGTTAAAATTGTTTCAC
DNA 2: GTGAAACAATTTTAACATGTCATAGCTTTATTTGTT
B10: XGTACX_negctrl_site373 (dsDNA)
DNA 1: ATTTATAATGATTTTTTTAGTAATCTTGTTATTTTT
DNA 2: AAAAATAACAAGATTACTAAAAAAATCATTATAAAT
B11: XGTACX_negctrl_site587 (dsDNA)
DNA 1: TATGAAAAAAAAAAAAAAAAAAAAAAAAAAAAAAAA
DNA 2: TTTTTTTTTTTTTTTTTTTTTTTTTTTTTTTTCATA
B12: XGTACX_negctrl_site400 (dsDNA)
DNA 1: AATAATGAAACAGGAAAAAAATATTGTTAAAATGTA
DNA 2: TACATTTTAACAATATTTTTTTCCTGTTTCATTATT
B13: XGTACX_negctrl_site76 (dsDNA)
DNA 1: TTATTATTTATTTTTTATTATTATTATTTTTTTTTA
DNA 2: TAAAAAAAAATAATAATAATAAAAAATAAATAATAA
B14: XGTACX_negctrl_site418 (dsDNA)
DNA 1: TTTTTTTTTTTTTTTTCTTTTTTTTTTTTAAATAAG
DNA 2: CTTATTTAAAAAAAAAAAAGAAAAAAAAAAAAAAAA
B15: XGTACX_negctrl_site118 (dsDNA)
DNA 1: AAGGTATACACTGCTTTATCAAGTTTAACTCTTTTT
DNA 2: AAAAAGAGTTAAACTTGATAAAGCAGTGTATACCTT
B16: XGTACX_negctrl_site308 (dsDNA)
DNA 1: TACATAATTTAAAATTTTATAAGTTGTAATTCGTTT
DNA 2: AAACGAATTACAACTTATAAAATTTTAAATTATGTA
B17: XGTACX_negctrl_site278 (dsDNA)
DNA 1: TAATATTTCTTATTTTATATTTGTATATGAATGGAT
DNA 2: ATCCATTCATATACAAATATAAAATAAGAAATATTA
B18: XGTACX_negctrl_site528 (dsDNA)
DNA 1: TTTTATCAAATATTTATTTTATACATAAATATTTAT
DNA 2: ATAAATATTTATGTATAAAATAAATATTTGATAAAA
B19: XGTACX_negctrl_site60 (dsDNA)
DNA 1: TACAGTTTTTCTTTGAATTTATCAAGTTTTTTTCCC
DNA 2: GGGAAAAAAACTTGATAAATTCAAAGAAAAACTGTA
B20: XGTACX_negctrl_site513 (dsDNA)
DNA 1: GAAAAAAAAAAAAAAAGAAAATTCATATTTTTAATA
DNA 2: TATTAAAAATATGAATTTTCTTTTTTTTTTTTTTTC
B21: XGTACX_negctrl_site1 (dsDNA)
DNA 1: TACAAACAAACACATAGCAATATATGTTATCAAAAA
DNA 2: TTTTTGATAACATATATTGCTATGTGTTTGTTTGTA
B22: XGTACX_negctrl_site357 (dsDNA)
DNA 1: ATAATTATATAAATATATATAATATATATATGAAAA
DNA 2: TTTTCATATATATATTATATATATTTATATAATTAT
B23: XGTACX_negctrl_site420 (dsDNA)
DNA 1: AAAAAATAGAATATAAAAATAAAGGAATTAAATTAA
DNA 2: TTAATTTAATTCCTTTATTTTTATATTCTATTTTTT
B24: XGTACX_negctrl_site47 (dsDNA)
DNA 1: ATATATATATAATTATATAAAATATATCATATGTTA
DNA 2: TAACATATGATATATTTTATATAATTATATATATAT
B25: XGTACX_negctrl_site355 (dsDNA)
DNA 1: AAAGGGGAAAATATTATACATATAATAAATCCGTAT
DNA 2: ATACGGATTTATTATATGTATAATATTTTCCCCTTT
B26: XGTACX_negctrl_site542 (dsDNA)
DNA 1: TACATTTCATTGTAATCATAAAAAATAAAGAAAAAA
DNA 2: TTTTTTCTTTATTTTTTATGATTACAATGAAATGTA
B27: XGTACX_negctrl_site307 (dsDNA)
DNA 1: CTTTATCTTCTCACGAAGATTGAATAAGGTATTCTT
DNA 2: AAGAATACCTTATTCAATCTTCGTGAGAAGATAAAG
B28: XGTACX_negctrl_site427 (dsDNA)
DNA 1: TTCTATATTTTAGCTGATAATATTATGAGCTTCACT
DNA 2: AGTGAAGCTCATAATATTATCAGCTAAAATATAGAA
B29: XGTACX_negctrl_site314 (dsDNA)
DNA 1: TAATTTATAAGGTATAACAACAATTGCATCTATCAC
DNA 2: GTGATAGATGCAATTGTTGTTATACCTTATAAATTA
B30: XGTACX_negctrl_site555 (dsDNA)
DNA 1: TTCTTTATTTATCATTATAAGAAGAGTTGATTTGTT
DNA 2: AACAAATCAACTCTTCTTATAATGATAAATAAAGAA

In this series the target is T1, AP2-G D1. The series is described as follows: gcPBM; about 25 ug protein; PBS, 1% milk, 0.2 mg/ml BSA, salmon testes DNA, 0.03% Triton X-100. To be noted: tags: N-terminal GST (pGEX-4T-1), kept; label: surface-attached array probe.
Consider B1, for which the binding signal was 9.58 ln median PBM intensity, better of two orientations.

On to B2, for which the binding signal was 9.71 ln median PBM intensity, better of two orientations.

Regarding B3, the binding signal is 9.64 ln median PBM intensity, better of two orientations.

With B4, the binding signal is 9.67 ln median PBM intensity, better of two orientations.

Regarding B5, the binding signal was 9.66 ln median PBM intensity, better of two orientations.

In the case of B6, the binding signal was 9.65 ln median PBM intensity, better of two orientations.

Turning to B7, the binding signal is 9.63 ln median PBM intensity, better of two orientations.

As to B8, the binding signal is 9.69 ln median PBM intensity, better of two orientations.

B9: the binding signal was 9.59 ln median PBM intensity, better of two orientations.

Regarding B10, the binding signal was 9.69 ln median PBM intensity, better of two orientations.

For the molecule B11, the binding signal is 9.69 ln median PBM intensity, better of two orientations.

Turning to B12, the binding signal was 9.6 ln median PBM intensity, better of two orientations.

Consider B13, for which the binding signal was 9.62 ln median PBM intensity, better of two orientations.

For the molecule B14, the binding signal is 9.64 ln median PBM intensity, better of two orientations.

For the molecule B15, the binding signal was 9.62 ln median PBM intensity, better of two orientations.

Turning to B16, the binding signal was 9.65 ln median PBM intensity, better of two orientations.

Take B17: the binding signal is 9.65 ln median PBM intensity, better of two orientations.

As for B18, the binding signal is 9.58 ln median PBM intensity, better of two orientations.

Consider B19, for which the binding signal is 9.65 ln median PBM intensity, better of two orientations.

For B20, the binding signal was 9.66 ln median PBM intensity, better of two orientations.

B21: the binding signal was 9.63 ln median PBM intensity, better of two orientations.

Take B22: the binding signal is 9.61 ln median PBM intensity, better of two orientations.

Take B23: the binding signal was 9.64 ln median PBM intensity, better of two orientations.

Consider B24, for which the binding signal is 9.64 ln median PBM intensity, better of two orientations.

Turning to B25, the binding signal was 9.67 ln median PBM intensity, better of two orientations.

For B26, the binding signal was 9.7 ln median PBM intensity, better of two orientations.

Take B27: the binding signal is 9.6 ln median PBM intensity, better of two orientations.

With B28, the binding signal is 9.67 ln median PBM intensity, better of two orientations.

For B29, the binding signal was 9.69 ln median PBM intensity, better of two orientations.

For the molecule B30, the binding signal was 9.71 ln median PBM intensity, better of two orientations.
